Experiment [1] has as its target T1, Staphylococcus aureus efflux pump NorA, wild type (S. aureus, UniProt P0A0J7).
T1 construct: NorA, major facilitator superfamily efflux pump of S. aureus; the construct is not described here; The C-terminal Myc tag is told only for the MRSA expression plasmid, not for this E. coli protein; also called wild-type NorA
In words: MST; NorA in amphipol at varied concentrations mixed with fluorophore-labelled Fab at 40 nM; 20 mM Tris pH 7.5, 100 mM NaCl, 0.025% Tween-20; 15 min incubation; three replicates. Particulars: both partners purified.

For experiment [2], the target named is FabDA1. In words: MST; pH 7.5: Fab labelled with a 647-nm fluorophore at 40 nM, NorA in PMAL-C8 amphipol at varied concentrations; 20 mM Tris pH 7.5, 100 mM NaCl, 0.025% Tween-20; 15 min incubation; fit with Hill slope 1.0; three replicates.
The target in experiment [3] is FabDA1. As to the kind of experiment: MST; pH 5.0: Fab labelled with a 647-nm fluorophore at 40 nM, NorA in PMAL-C8 amphipol at varied concentrations; 50 mM acetate pH 5.0, 100 mM NaCl, 0.025% Tween-20; 15 min incubation; fit with Hill slope 1.0; three replicates.

B1: Fab36 (Fab, V domains shown)
VH: EVQLVESGGGLVQPGGSLRLSCAASGFTFSSSSIHWVRQAPGKGLEWVASISSSSGSTSYADSVKGRFTISADTSKNTAYLQMNSLRAEDTAVYYCARYSRYYYYAWRVGGYWGGLDYWGQGTLVTVFN
VL: DIQMTQSPSSLSASVGDRVTITCRASQSVSSAVAWYQQKPGKAPKLLIYSASSLYSGVPSRFSGSRSGTDFTLTISSLQPEDFATYYCQQSSSSLITFGQGTKVEIK
notes: also called outward-open-specific Fab36
For B1, the binding result in experiment [1] is on record as “binds”.

B2: NorA (wild-type, Staphylococcus aureus efflux pump) (natural protein)
chain: MNKQIFVLYFNIFLIFLGIGLVIPVLPVYLKDLGLTGSDLGLLVAAFALSQMIISPFGGTLADKLGKKLIICIGLILFSVSEFMFAVGHNFSVLMLSRVIGGMSAGMVMPGVTGLIADISPSHQKAKNFGYMSAIINSGFILGPGIGGFMAEVSHRMPFYFAGALGILAFIMSIVLIHDPKKSTTSGFQKLEPQLLTKINWKVFITPVILTLVLSFGLSAFETLYSLYTADKVNYSPKDISIAITGGGIFGALFQIYFFDKFMKYFSELTFIAWSLLYSVVVLILLVFANGYWSIMLISFVVFIGFDMIRPAITNYFSNIAGERQGFAGGLNSTFTSMGNFIGPLIAGALFDVHIEAPIYMAIGVSLAGVVIVLIEKQHRAKLKEQNM
As a reminder, the Kd is a measure of binding affinity in units of concentration. With B2, the Kd was more than 24.5 µM in the experiment with FabDA1 [2] and 2.9 µM with FabDA1 [3].

The record behind these values is paper PMC11130294 (Nature Communications, 2024).
